Results taken from paper PMC2935145.

Target: Hr domain from the Acidothermus cellulolyticus P_(1B-5)-ATPase (P_(1B-5)-Hr) (Acidothermus cellulolyticus 11B)
Assay: SEC

With “Hr domain from the Acidothermus cellulolyticus P_(1B-5)-ATPase (P_(1B-5)-Hr) (domain or fragment)” the stoichiometry N was 2.
